From patent US20220267407A1 (published 2022) come the findings set out here.

For assay [1], the target named is T1, EBNA3C (EBV) peptide on HLA-C*06:02 (human).
T1 peptide: RRYRRIYDL
Put plainly: cytokine release.

Assay [2] addresses T2, EBNA3C (EBV) peptide on HLA-C*06:02 (human).
T2 peptide: AREAEVRFL
The assay can be described thus: cytokine release.

Assay [3] addresses T3, EBNA3C (EBV) peptide on HLA-C*06:02 (human).
T3 peptide: LRGKWQRRY
Put plainly: cytokine release.

For assay [4], the target named is T4, EBNA3C (EBV) peptide on HLA-C*06:02 (human).
T4 peptide: ERYAREAEV
Put plainly: cytokine release.

Assay [5] addresses T5, EBNA3C (EBV) peptide on HLA-C*06:02 (human).
T5 peptide: SRRRRGACV
The assay can be described thus: cytokine release.

Assay [6] addresses T6, EBNA3C (EBV) peptide on HLA-C*06:02 (human).
T6 peptide: NLLDFVRFM
Put plainly: cytokine release.

For assay [7], the target named is T7, EBNA3C (EBV) peptide on HLA-C*06:02 (human).
T7 peptide: RRRRGACVV
The assay can be described thus: cytokine release.

Assay [8] concerns the target T8, EBNA3C (EBV) peptide on HLA-C*06:02 (human).
T8 peptide: VRFLRGKWQ
Put plainly: cytokine release.

The target of assay [9] is T9, EBNA3C (EBV) peptide on HLA-C*06:02 (human).
T9 peptide: RRRGACVVY
The assay can be described thus: cytokine release.

In assay [10] the target is T10, EBNA3C (EBV) peptide on HLA-C*06:02 (human).
T10 peptide: QRRYRRIYD
Put plainly: cytokine release.

Assay [11] has as its target T11, EBNA3C (EBV) peptide on HLA-C*06:02 (human).
T11 peptide: VRFMGVMSS
Put plainly: cytokine release.

Assay [12] concerns the target T12, EBNA3C (EBV) peptide on HLA-C*06:02 (human).
T12 peptide: YAREAEVRFL
The assay can be described thus: cytokine release.

Assay [13] addresses T13, EBNA3C (EBV) peptide on HLA-C*06:02 (human).
T13 peptide: NRVGADSIM
The assay can be described thus: cytokine release.

The target in assay [14] is T14, EBNA3C (EBV) peptide on HLA-C*06:02 (human).
T14 peptide: LHHIWQNLL
The assay can be described thus: cytokine release.

The target in assay [15] is T15, EBNA3C (EBV) peptide on HLA-C*06:02 (human).
T15 peptide: RRGIKEHVI
Put plainly: cytokine release.

The target of assay [16] is T16, EBNA3C (EBV) peptide on HLA-C*06:02 (human).
T16 peptide: YRRIYDLIE
Put plainly: cytokine release.

The target in assay [17] is T17, EBNA3C (EBV) peptide on HLA-C*06:02 (human).
T17 peptide: RRYRRIYDLI
The assay can be described thus: cytokine release.

In assay [18] the target is T18, EBNA3C (EBV) peptide on HLA-C*06:02 (human).
T18 peptide: ARRGIKEHV
The assay can be described thus: cytokine release.

Assay [19] deals with T19, EBNA3C (EBV) peptide on HLA-C*06:02 (human).
T19 peptide: QRRYRRIYDL
The assay can be described thus: cytokine release.

Assay [20] has as its target T20, EBNA3C (EBV) peptide on HLA-C*06:02 (human).
T20 peptide: WQRRYRRIY
Put plainly: cytokine release.

Assay [21] concerns the target T21, EBNA3C (EBV) peptide on HLA-C*06:02 (human).
T21 peptide: FLRGKWQRRY
The assay can be described thus: cytokine release.

In assay [22] the target is T22, EBNA3C (EBV) peptide on HLA-C*06:02 (human).
T22 peptide: RRGACVVYD
The assay can be described thus: cytokine release.

The target in assay [23] is T23, EBNA3C (EBV) peptide on HLA-C*06:02 (human).
T23 peptide: VYDDDVIEV
Put plainly: cytokine release.

The target of assay [24] is T24, EBNA3C (EBV) peptide on HLA-C*06:02 (human).
T24 peptide: YAREAEVRF
Put plainly: cytokine release.

In assay [25] the target is T25, EBNA3C (EBV) peptide on HLA-C*06:02 (human).
T25 peptide: GCQNAARTL
Put plainly: cytokine release.

For assay [26], the target named is T26, EBNA3C (EBV) peptide on HLA-B*44:02 (human).
T26 peptide: SERLVPEESY
Put plainly: cytokine release.

Assay [27] deals with T27, EBNA3C (EBV) peptide on HLA-B*44:02 (human).
T27 peptide: WLLTSPSQSW
Put plainly: cytokine release.

Assay [28] deals with T28, EBNA3C (EBV) peptide on HLA-B*44:02 (human).
T28 peptide: LLTSPSQSW
The assay can be described thus: cytokine release.

In assay [29] the target is T29, EBNA3C (EBV) peptide on HLA-B*44:02 (human).
T29 peptide: AEGGVGWRHW
The assay can be described thus: half-maximum IFN-gamma release; peptide titration on K562-HLA-B*44:02, ELISA after 24 h, E:T 1:1; full-length, on cells. On the technique in general: ELISA stands for enzyme-linked immunosorbent assay.

Assay [30] deals with T30, LMP2A (EBV) peptide on HLA-A*02:01 (human).
T30 peptide: MCLGGLLTMV
The assay can be described thus: cytokine release.

The target of assay [31] is T31, LMP2A (EBV) peptide on HLA-A*02:01 (human).
T31 peptide: CLGGLLTMV
Put plainly: half-maximum IFN-gamma release; peptide titration on K562-HLA-A*02:01, ELISA after 24 h, E:T 1:1; full-length, on cells.

The target in assay [32] is T31, LMP2A (EBV) peptide on HLA-A*02:01. The assay can be described thus: the description's statement of this TCR's peptide sensitivity; K562-HLA-A*02:01 loaded with peptide, E:T 1:1; full-length, on cells.
For assay [33], the target named is T32, LMP1 (EBV) peptide on HLA-B*57:01 (human).
T32 peptide: WTLLVDLLW
Put plainly: cytokine release.

The target of assay [34] is T33, LMP1 (EBV) peptide on HLA-B*57:01 (human).
T33 peptide: IALYLQQNWW
The assay can be described thus: cytokine release.

Assay [35] deals with T34, LMP1 (EBV) peptide on HLA-B*57:01 (human).
T34 peptide: WWTLLVDLLW
The assay can be described thus: cytokine release.

In assay [36] the target is T35, LMP1 (EBV) peptide on HLA-B*57:01 (human).
T35 peptide: IIALYLQQNW
The assay can be described thus: cytokine release.

Assay [37] has as its target T36, LMP1 (EBV) peptide on HLA-B*57:01 (human).
T36 peptide: WTLLVDLLWL
Put plainly: cytokine release.

Assay [38] addresses T37, LMP1 (EBV) peptide on HLA-B*57:01 (human).
T37 peptide: LAILIWMYY
Put plainly: cytokine release.

Assay [39] concerns the target T38, LMP1 (EBV) peptide on HLA-B*57:01 (human).
T38 peptide: LLFLAILIW
The assay can be described thus: cytokine release.

The target in assay [40] is T39, LMP1 (EBV) peptide on HLA-B*57:01 (human).
T39 peptide: LLLFLAILIW
Put plainly: cytokine release.

The target of assay [41] is T40, LMP1 (EBV) peptide on HLA-B*57:01 (human).
T40 peptide: LAILIWMYYH
Put plainly: cytokine release.

The target in assay [42] is T41, LMP1 (EBV) peptide on HLA-B*57:01 (human).
T41 peptide: ALYLQQNWW
The assay can be described thus: cytokine release.

Assay [43] addresses T42, LMP1 (EBV) peptide on HLA-B*57:01 (human).
T42 peptide: FLAILIWMYY
Put plainly: cytokine release.

For assay [44], the target named is T43, LMP1 (EBV) peptide on HLA-B*57:01 (human).
T43 peptide: NSNEGRHHL
Put plainly: cytokine release.

Assay [45] deals with T44, LMP1 (EBV) peptide on HLA-B*57:01 (human).
T44 peptide: IALYLQQNW
The assay can be described thus: half-maximum IFN-gamma release; peptide titration on K562-HLA-B*57:01, ELISA after 24 h, E:T 1:1; full-length, on cells.

Assay [46] has as its target T45, LMP1 (EBV) peptide on HLA-C*15:02 (human).
T45 peptide: NSNEGRHHL
The assay can be described thus: cytokine release.

Assay [47] concerns the target T46, LMP1 (EBV) peptide on HLA-C*15:02 (human).
T46 peptide: DSLPHPQQA
The assay can be described thus: cytokine release.

Assay [48] has as its target T47, LMP1 (EBV) peptide on HLA-C*15:02 (human).
T47 peptide: YLQQNWWTL
The assay can be described thus: cytokine release.

The target in assay [49] is T48, LMP1 (EBV) peptide on HLA-C*15:02 (human).
T48 peptide: QQNWWTLLV
Put plainly: half-maximum IFN-gamma release; peptide titration on K562-HLA-C*15:02, ELISA after 24 h, E:T 1:1; full-length, on cells.

B1: TCR64 (TCR, V domains shown)
Valpha: TQLLEQSPQFLSIQEGENLTVYCNSSSVFSSLQWYRQEPGEGPVLLVTVVTGGEVKKLKRLTFQFGDARKDSSLHITAAQPGDTGLYLCAGDVDTGTASKLTFGTGTRLQVTL
Vbeta: DVKVTQSSRYLVKRTGEKVFLECVQDMDHENMFWYRQDPGLGLRLIYFSYDVKMKEKGDIPEGYSVSREKKERFSLILESASTNQTSMYLCASSLLGSGALYEQYFGPGTRLTVT
In the case of B1, the binding result in assay [1], in assay [2], in assay [3], in assay [4], in assay [5] and in assay [6] was “no recognition” in each case. Also, the binding result in assay [7], in [8], in assay [9], in [10], in assay [11] and in assay [12] was “no recognition” throughout. In addition, the binding result in assay [13], in assay [14], in [15], in assay [16], in [17] and in assay [18] was “no recognition” each time. Moreover, the binding result in assay [19], in assay [20], in [21], in assay [22], in assay [23] and in [24] was “no recognition” throughout. In addition, the binding result in assay [25] is “no recognition”.

B2: TCR58 (TCR, V domains shown)
Valpha: RKEVEQDPGPFNVPEGATVAFNCTYSNSASQSFFWYRQDCRKEPKLLMSVYSSGNEDGRFTAQLNRASQYISLLIRDSKLSDSATYLCVASGDSSYKLIFGSGTRLLVRP
Vbeta: EPEVTQTPSHQVTQMGQEVILRCVPISNHLYFYWYRQILGQKVEFLVSFYNNEISEKSEIFDDQFSVERPDGSNFTLKIRSTKLEDSAMYFCASSDPLSTYNEQFFGPGTRLTVL
Take B2: the binding result in assay [26], in [27] and in assay [28] was “no recognition” each time. Also, in assay [29], the EC50 of peptide came out at 300 nM.

B3: TCR06 (TCR, V domains shown)
Valpha: KQEVTQIPAALSVPEGENLVLNCSFTDSAIYNLQWFRQDPGKGLTSLLLIQSSQREQTSGRLNASLDKSSGRSTLYIAASQPGDSATYLCAVLMDSNYQLIWGAGTKLIIKP
Vbeta: DAGITQSPRYKITETGRQVTLMCHQTWSHSYMFWYRQDLGHGLRLIYYSAAADITDKGEVPDGYVVSRSKTENFPLTLESATRSQTSVYFCASSEDGMNTEAFFGQGTRLTVV
For the molecule B3, the binding result in assay [30] is reported as “recognises”. Also, the EC50 of peptide in assay [31] is 6 nM; in assay [32] it was ≤ 10 nM.

B4: TCR50 (TCR, V domains shown)
Valpha: AQSVTQLDSHVSVSEGTPVLLRCNYSSSYSPSLFWYVQHPNKGLQLLLKYTSAATLVKGINGFEAEFKKSETSFHLTKPSAHMSDAAEYFCVVMATGFQKLVFGTGTRLLVSP
Vbeta: DSGVTQTPKHLITATGQRVTLRCSPRSGDLSVYWYQQSLDQGLQFLIQYYNGEERAKGNILERFSAQQFPDLHSELNLSSLELGDSALYFCASSVTSGSDEQFFGPGTRLTVL
Turning to B4, the binding result in assay [33] is on record as “no recognition”; in assay [34], “recognises”; in assay [35], “no recognition”; in assay [36] it was “recognises”; in [37], “no recognition”; in assay [38], “no recognition”. Also, the binding result in assay [39] was “no recognition”; in assay [40] it was “no recognition”; in assay [41] it was “no recognition”; in assay [42] it was “recognises”; in assay [43], “no recognition”; in assay [44], “no recognition”. The EC50 of peptide in [45] was found to be 30 nM.

B5: TCR25 (TCR, V domains shown)
Valpha: AQSVTQLDSHVSVSEGTPVLLRCNYSSSYSPSLFWYVQHPNKGLQLLLKYTSAATLVKGINGFEAEFKKSETSFHLTKPSAHMSDAAEYFCVAWDTGFQKLVFGTGTRLLVSP
Vbeta: EPEVTQTPSHQVTQMGQEVILRCVPISNHLYFYWYRQILGQKVEFLVSFYNNEISEKSEIFDDQFSVERPDGSNFTLKIRSTKLEDSAMYFCASKALADTQYFGPGTRLTVL
Take B5: the binding result in assay [26], in assay [27] and in assay [28] was “no recognition” in each case. Moreover, the EC50 of peptide in assay [29] was found to be 600 nM.

B6: TCR83 (TCR, V domains shown)
Valpha: GQNIDQPTEMTATEGAIVQINCTYQTSGFNGLFWYQQHAGEAPTFLSYNVLDGLEEKGRFSSFLSRSKGYSYLLLKELQMKDSASYLCAAVNNAGNMLTFGGGTRLMVKP
Vbeta: DTAVSQTPKYLVTQMGNDKSIKCEQNLGHDTMYWYKQDSKKFLKIMFSYNNKELIINETVPNRFSPKSPDKAHLNLHINSLELGDSAVYFCASSQGYGGPSTDTQYFGPGTRLTVL
Turning to B6, the binding result in assay [46], in [47] and in assay [48] was “no recognition” in each case. In addition, the EC50 of peptide in assay [49] came out at 2 nM.
